Test [1] addresses pyrene-labeled ADP-actin filaments (chicken breast muscle actin) (chicken, UniProt P68139 1-377, pyrene (pyrene iodoacetamide) on cysteine-374). The test can be described thus: other fluorescence titration.
In test [2] the target is Mg-ATP-actin monomer (chicken breast muscle actin) (chicken, UniProt P68139 1-377). The test can be described thus: inhibition of nucleotide exchange.

B1: cofilin-M3 (natural protein)
chain: MSFSGVKVSPECLEAFQELKLGKSLRYVVFKMNDTKTEIVVEKKSTDKDFDTFLGDLPEKDCRYAIYDFEFNLGEGVRNKIIFISWSPDVAPIKSKMVYSSSKDTLRRAFTGIGTDIQATDFSEVAYETVLAAVTRK
By Kd is commonly meant the free concentration of one partner at which half of the binding sites on the other are occupied at equilibrium, for simple one-to-one binding. Consider B1, for which, in test [1], the “Ka of the cooperative model (Kd = 1/(ω*Ka))” value came out at 0.08 µM⁻¹ and the dissociation constant Kd was found to be 890 nM. Further, in test [2], binding was characterised by a dissociation constant (Kd) of 170 nM.

Source of the values: publication PMC3206353 (The Journal of Cell Biology, 2011).
